# pIC50, pKd: −log10 of the molar value.
# Legend:
# [1] = biological target: transferrin receptor 1 (CD71), His‐tagged (UniProt P02786); assay: BLI; Octet N1; His-tagged CD71 immobilised on Ni-NTA tip; HFn-Pep2-8 2.5–1580 nM; PBS with 0.02% Tween 20, 0.1% BSA, 0.05% NaN3; KD from plateau values (steady state)
# [2] = biological target: PCSK9 (Homo sapiens) (UniProt Q8NBP7); settings: cited from earlier work
# [3] = biological target: proprotein convertase subtilisin/kexin type 9 (PCSK9) (UniProt Q8NBP7)
# Sequence of proprotein convertase subtilisin/kexin type 9 (PCSK9) (Q8NBP7 153-692): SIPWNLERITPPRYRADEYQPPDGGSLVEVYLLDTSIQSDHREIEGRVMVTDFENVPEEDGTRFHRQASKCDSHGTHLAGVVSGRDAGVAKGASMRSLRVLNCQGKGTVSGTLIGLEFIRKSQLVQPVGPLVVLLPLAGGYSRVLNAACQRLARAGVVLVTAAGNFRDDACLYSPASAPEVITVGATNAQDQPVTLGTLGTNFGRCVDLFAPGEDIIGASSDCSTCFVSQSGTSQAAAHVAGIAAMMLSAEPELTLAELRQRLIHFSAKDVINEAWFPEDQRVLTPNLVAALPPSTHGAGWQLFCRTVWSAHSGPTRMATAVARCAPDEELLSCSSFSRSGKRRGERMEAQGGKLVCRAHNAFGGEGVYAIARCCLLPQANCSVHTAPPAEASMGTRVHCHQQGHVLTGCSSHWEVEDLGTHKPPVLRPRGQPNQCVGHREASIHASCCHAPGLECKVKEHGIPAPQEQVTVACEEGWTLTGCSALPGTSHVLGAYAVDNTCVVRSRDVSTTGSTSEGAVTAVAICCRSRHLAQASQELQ
# [4] = biological target: proprotein convertase subtilisin/kexin type 9 (PCSK9) (UniProt Q8NBP7); remark: listed apart in the source
# [5] = biological target: His‐tagged PCSK9 of the CircuLex PCSK9‐LDLR in vitro binding assay kit (UniProt Q8NBP7); assay: ELISA; CircuLex PCSK9-LDLR binding kit; LDLR-AB domain immobilised on the plate; His-tagged PCSK9 70 ng/mL alone or preincubated with HFn-Pep2-8 1–280 nM; 2 h; detected by biotinylated anti-His antibody
# Sequence of His‐tagged PCSK9 of the CircuLex PCSK9‐LDLR in vitro binding assay kit (Q8NBP7 153-692): as above
# Sequence of transferrin receptor 1 (CD71), His‐tagged (P02786 whole entry): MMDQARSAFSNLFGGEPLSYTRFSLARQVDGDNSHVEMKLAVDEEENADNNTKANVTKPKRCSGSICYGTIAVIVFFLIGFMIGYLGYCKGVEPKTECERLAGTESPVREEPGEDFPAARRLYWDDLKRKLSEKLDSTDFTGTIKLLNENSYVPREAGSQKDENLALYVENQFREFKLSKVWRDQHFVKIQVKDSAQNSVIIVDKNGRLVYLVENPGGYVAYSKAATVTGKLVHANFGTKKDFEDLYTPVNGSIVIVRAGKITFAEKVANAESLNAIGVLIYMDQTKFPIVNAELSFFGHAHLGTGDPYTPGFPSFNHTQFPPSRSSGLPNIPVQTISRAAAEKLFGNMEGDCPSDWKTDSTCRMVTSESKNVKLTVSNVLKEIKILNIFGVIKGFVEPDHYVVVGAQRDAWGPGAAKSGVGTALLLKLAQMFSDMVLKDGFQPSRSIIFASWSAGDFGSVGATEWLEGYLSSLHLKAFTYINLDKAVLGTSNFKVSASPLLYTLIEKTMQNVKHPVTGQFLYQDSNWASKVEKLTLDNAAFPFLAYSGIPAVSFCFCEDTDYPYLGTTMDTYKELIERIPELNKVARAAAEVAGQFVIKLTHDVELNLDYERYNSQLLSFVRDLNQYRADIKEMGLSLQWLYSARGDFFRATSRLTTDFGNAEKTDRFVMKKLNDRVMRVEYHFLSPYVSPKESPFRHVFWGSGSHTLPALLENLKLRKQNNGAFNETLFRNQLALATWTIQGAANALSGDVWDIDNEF
# Sequence of PCSK9 (Homo sapiens) (Q8NBP7 153-692): as the sequence (Q8NBP7 153-692) above
substance,measurement,setting,value
HFn‐Pep2‐8 (human H ferritin with Pep2‐8 and a four‐glycine linker fused to the N‐terminus of each subunit) (designed binder; other documents disagree on this pair),pKd,[1],7.57
Alirocumab,pKd,[2],9.28
HFn‐Pep2‐8 (human H ferritin with Pep2‐8 and a four‐glycine linker fused to the N‐terminus of each subunit) (designed binder),"LDLR at the plasma membrane of HepG2 cells (immunofluorescence, MFI) after 8 h with 7 μg/mL PCSK9 plus 0.1 or 1 μM HFn-Pep2-8; blocks PCSK9 binding to LDLR",[3],90%
same,Dil-LDL uptake by HepG2 cells (MFI) with 7 μg/mL PCSK9 plus 0.1 μM (81.12%) or 1 μM HFn-Pep2-8; blocks PCSK9 binding to LDLR,[4],117%
same,pIC50,[5],7.10
